B1: Δ91‐FATZ‐1 (domain or fragment, UniProt Q9NP98 92-299, looked up)
chain: PTVGGQLGTAGQGFSYSKSNGRGGSQAGGSGSAGQYGSDQQHHLGSGSGAGGTGGPAGQAGRGGAAGTAGVGETGSGDQAGGEGKHITVFKTYISPWERAMGVDPQQKMELGIDLLAYGAKAELPKYKSFNRTAMPYGGYEKASKRMTFQMPKFDLGPLLSEPLVLYNQNLSNRPSFNRTPIPWLSSGEPVDYNVDIGIPLDGETEEL
notes: FATZ-1 (calsarcin-2/myozenin-1) with a deletion of the 91 N-terminal residues; Detailed purification protocols are to be published elsewhere (Mlynek et al., in preparation); also called FATZ‐1 lacking the first 91 residues; calsarcin‐2
B2: α‐actinin‐2 rod domain (domain or fragment, UniProt P35609 274-746, looked up)
chain: AVNQENERLMEEYERLASELLEWIRRTIPWLENRTPEKTMQAMQKKLEDFRDYRRKHKPPKVQEKCQLEINFNTLQTKLRISNRPAFMPSEGKMVSDIAGAWQRLEQAEKGYEEWLLNEIRRLERLEHLAEKFRQKASTHETWAYGKEQILLQKDYESASLTEVRALLRKHEAFESDLAAHQDRVEQIAAIAQELNELDYHDAVNVNDRCQKICDQWDRLGTLTQKRREALERMEKLLETIDQLHLEFAKRAAPFNNWMEGAMEDLQDMFIVHSIEEIQSLITAHEQFKATLPEADGERQSIMAIQNEVEKVIQSYNIRISSSNPYSTVTMDELRTKWDKVKQLVPIRDQSLQEELARQHANERLRRQFAAQANAIGPWIQNKMEEIARSSIQITGALEDQMNQLKQYEHNIINYKNNIDKLEGDHQLIQEALVFDNKHTNYTMEHIRVGWELLLTTIARTINEVETQILTRD
notes: α-actinin-2, rod domain, residues 274-746; Detailed purification protocols are to be published elsewhere (Mlynek et al., in preparation); PDB 4D1E is the longer α-actinin-2 dimer, of which the rod domain is a stretch; also called rod domain of α‐actinin‐2

Key:
[1] = target: B2; test: cell-based or functional assay
[2] = target: B2; test: SEC-MALS; Superdex‐200 10/300 Increase; 20 mM Tris–HCl pH 7.5, 100 mM NaCl, 50 mM arginine, 50 mM glutamic acid, 0.5 mM PMSF, 1 mM EDTA, 1 mM β‐mercaptoethanol; 100 μl injected at 2-4 mg/ml; 20°C; 0.5 ml/min; settings: both partners purified
[3] = target: the molecule itself; test: as above

Binder | ΔGu°′ of the complex against ΔGu°′ of the rod domain alone, thermal unfolding (NanoDSF) [1] [fold] | stoichiometry N [2] | stoichiometry N [3]
B1 | ~2 | 2 Δ91‐FATZ‐1 molecules per rod domain dimer | –
B2 | – | – | 2
